Experiments:
[1] = test system: HUVEC (human umbilical vein endothelial cells); assay: HUVEC cytotoxicity assay: calcein release after attack by TNF-primed, α-PR3 mAb-activated neutrophils; type: cell-based; details: for % Release / Mean (fluorescence): 0.25 mg/mL, α-PR3 mAbs +, 4 hours at 37° C.; for response in fluorescence release: all doses tested
Excerpt: A cell culture provides a model of the blood vessels by using HUVEC (human umbilical vein endothelial cells) cultured to 80-90% confluence as a representation of the blood vessel wall. The following is a model of GPA in cell culture using HUVEC and human blood neutrophils that are primed and activated by c-ANCA in the same manner as the disease. HUVEC are sensitized to inflammatory damage by pre-exposure to BCNU and ionomycin. In the disease state of Granulomatosis with Polyangiitis (GPAANegener's), activated neutrophils attack the blood vessel walls. This study evaluated two compounds, A1PI (α-1-antitrypsin; Sigma Aldrich Cat. No. A9024, lot SLBL9794V, 90% purity) and elafin (AnaSpec Cat. No. AS-61641, lot 1360190, 95% purity), and their ability to mitigate the induced damage to HUVEC as a model of the vascular endothelium compared to the negative control al-antichymotrypsin (Athens Research & Technology, Cat. No. 16-16-012400, lot AX2014-02, >95% purity). al-Antichymotrypsin was chosen as a negative control due to its structural similarity to A1PI and lack of activity against the PR3 receptor. α-1-Antichymotrypsin inhibits neutrophil cathepsin G and mast cell chymase.
Confluent HUVEC was labeled with calcein-AM as a fluorescent marker. Calcein-AM is a cell-permeant dye that can be used to determine cell viability in HUVEC (and most eukaryotic cells). In live cells the non-fluorescent calcein AM is converted to a green-fluorescent calcein upon uptake after acetoxymethyl ester hydrolysis by intracellular esterases. Calcein-AM dye requires very small quantities of cells while maintaining the same sensitivity as the traditional ^51Cr assay. Once taken up by the cell, free calcein is generally membrane impermeable and only permeates through gap junctions. Although there is some leakage over the incubation period, this is accounted for through the use of a control of HUVEC alone, labelled with Calcein-AM and used to determine the baseline fluorescence level accounting for normal cellular processes.
Peripheral blood neutrophils were primed to enhance expression of the PR-3 receptor (proteinase 3) with 50 U/mL TNF. A high proportion of membrane PR3 positive neutrophils is a risk factor for the development of vasculitis, and elevated membrane PR3 levels are associated with a higher relapse rate in patients with Wegener granulomatosis. Activated neutrophils were then added (5×10^5 neutrophils/well) to plated calcein labeled HUVEC to produce an inflammatory response. Four dose concentrations of A1PI (0.25, 0.5, 1.0 and 2.0 mg/mL) and one dose of elafin (0.25 mg/mL) were evaluated for prevention of the activation of neutrophils and lysis of the cells. One dose concentration of the negative control al antichymotrypsin (0.25 mg/mL) was evaluated.
Three a-PR-3 MoAbs [monoclonal antibodies (15 μg/mL of α-PR3 WGM2 and 5 μg/ml each of a-PR3 4A5 and α-PR 6A6, for a total of 25 μg/mL)] were added to activate the neutrophils to attack the HUVEC, causing lysis of the HUVEC. α-PR3 4A5 and α-PR3 6A6 clones were obtained from Eurodiagnostica and the α-PR3 WGM2 from Abcam. These 3 clones were selected to provide a model of the polyclonal response that would be seen in vivo and represent three binding sites on the PR-3 receptor (Van Der Geld, Characterization of monoclonal antibodies to PR3 as candidate tools for epitope mapping or human anti-PR3 autoantibodies, 1999). After addition of the activated neutrophils, test compounds and α-PR3 mAbs, cells were incubated for 4 hours at 37° C. Following incubation the supernatant was evaluated for fluorescence. When neutrophils attack the HUVEC and cell lysis occurs, the fluorescent calcein label is released from damaged membranes and measured in the supernatants.
A1PI provided a response that was dose dependent and directional in nature. The mean fluorescence was determined from […] aliquots of supernatant from each well, with 6 wells for each condition (18 replicates total). […]

proteinase-3 [2] = target: T1, proteinase-3 (Homo sapiens, UniProt P24158); details: Nobar et al, FEBS 272 (2005); cited from earlier work
T1 sequence (P24158 28-248): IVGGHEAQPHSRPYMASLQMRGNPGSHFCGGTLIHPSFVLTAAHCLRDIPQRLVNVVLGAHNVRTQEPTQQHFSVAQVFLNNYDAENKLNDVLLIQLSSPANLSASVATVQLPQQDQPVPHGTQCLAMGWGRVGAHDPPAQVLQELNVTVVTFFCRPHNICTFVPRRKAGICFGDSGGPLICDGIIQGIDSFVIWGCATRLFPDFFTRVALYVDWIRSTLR

proteinase-3 [3] = target: T1, proteinase-3; details: cited from earlier work

Molecule: Elafin: mature product of Trappin-2, C-terminal 57 amino acids (61-117 of SEQ ID NO: 9); AnaSpec Cat. No. AS-61641 (AQEPVKGPVSTKPGSCPIILIRCAMLNPPNRCLKDTDCPGIKKCCEGSCGMACFVPQ; listed as Homo sapiens)
- % Release [1]: 6.2%
- Mean (fluorescence) [1]: 5455.7
- response in fluorescence release [1]: showed a functional response
- Ki values (proteinase-3 [2]): sub-nanomolar range
- equilibrium dissociation constant (Ki) for proteinase-3/elafin association (proteinase-3 [3]): 20 nM

Molecule: Trappin-2: precursor of elafin, 117 amino acids, SEQ ID NO: 9
- Ki values (proteinase-3 [2]): sub-nanomolar range
- K of Proteinase-3/Trappin-2 associations (proteinase-3 [3]): 12 nm

B1: Negative K: negative control α1-antichymotrypsin (Athens Research & Technology), structurally similar to A1PI, lacks activity against the PR3 receptor (protein)
chain: HPNSPLDEENLTQENQDRGTHVDLGLASANVDFAFSLYKQLVLKAPDKNVIFSPLSISTALAFLSLGAHNTTLTEILKGLKFNLTETSEAEIHQSFQHLLRTLNQSSDELQLSMGNAMFVKEQLSLLDRFTEDAKRLYGSEAFATDFQDSAAAKKLINDYVKNGTRGKITDLIKDLDSQTMMVLVNYIFFKAKWEMPFDPQDTHQSRFYLSKKKWVMVPMMSLHHLTIPYFRDEELSCTVVELKYTGNASALFILPDQDKMEEVEAMLLPETLKRWRDSLEFREIGELYLPKFSISRDYNLNDILLQLGIEEAFTSKADLSGITGARNLAVSQVVHKAVLDVFEEGTEASAATAVKITLLSALVETRTIVRFNRPFLMIIVPTDTQNIFFMSKVTNPKQA
- % Release [1]: 21.9%
- Mean (fluorescence) [1]: 4417.7
- response in fluorescence release [1]: failing to provide a meaningful change

Reference: patent publication US12702701B2, “Compositions and methods for treating granulomatosis with polyangiitis” (Canem Holdings, LLC, priority 2015, dated 2026)
